Experimental findings from paper PMC7408900, “Cancer-Associated Substitutions in RNA Recognition Motifs of PUF60 and U2AF65 Reveal Residues Required for Correct Folding and 3′ Splice-Site Selection” are described below.

Series [1] concerns the target T1, PUF60 WT (human, UniProt Q9UHX1 1-559). Briefly: EMSA; Kd only in figure; Hill 2.6; similar affinity to cr probe; EMSA: 40 mM Tris pH 8.0, 5 mM MgCl2, 0.25 ug/uL heparin, 0.01% Triton, 1 mM DTT, room temperature 20 min; 6% native PAGE in 0.5x TBE at 4 C; 15-17 nM biotin-RNA. As to conditions: protein: recombinant; tags: 2xHis-lipoyl-TEV, removed by TEV; label: 5' biotin; single strand.

Series [2] has as its target T2, U2AF65 WT (human, UniProt P26368 1-475). Briefly: EMSA; Kd shown only in figure; 0.13-4.2 uM protein; similar affinity to cr probe; EMSA: 40 mM Tris pH 8.0, 5 mM MgCl2, 0.25 ug/uL heparin, 0.01% Triton, 1 mM DTT, room temperature 20 min; 6% native PAGE in 0.5x TBE at 4 C; 15-17 nM biotin-RNA. Conditions: protein: recombinant; tags: N-terminal GST (pGEX6P, eluted with glutathione); label: 5' biotin; single strand. For orientation: A gel shift assay detects complexes by their altered migration in electrophoresis.

In series [3] the target is T1, PUF60 WT. Nature of the series: EMSA; Kd only in figure; Hill 3.0; similar affinity to can probe; EMSA: 40 mM Tris pH 8.0, 5 mM MgCl2, 0.25 ug/uL heparin, 0.01% Triton, 1 mM DTT, room temperature 20 min; 6% native PAGE in 0.5x TBE at 4 C; 15-17 nM biotin-RNA. Conditions: protein: recombinant; tags: 2xHis-lipoyl-TEV, removed by TEV; label: 5' biotin; single strand.
For series [4], the target named is T2, U2AF65 WT. Nature of the series: EMSA; Kd shown only in figure; 0.13-4.2 uM protein; similar affinity to can probe; EMSA: 40 mM Tris pH 8.0, 5 mM MgCl2, 0.25 ug/uL heparin, 0.01% Triton, 1 mM DTT, room temperature 20 min; 6% native PAGE in 0.5x TBE at 4 C; 15-17 nM biotin-RNA. As to conditions: protein: recombinant; tags: N-terminal GST (pGEX6P, eluted with glutathione); label: 5' biotin; single strand.

In series [5] the target is T1, PUF60 WT. Nature of the series: EMSA; strong binding; 0.14-1.25 uM protein, 15 nM RNA; EMSA: 40 mM Tris pH 8.0, 5 mM MgCl2, 0.25 ug/uL heparin, 0.01% Triton, 1 mM DTT, room temperature 20 min; 6% native PAGE in 0.5x TBE at 4 C; 15-17 nM biotin-RNA. Conditions: protein: recombinant; tags: 2xHis-lipoyl-TEV, removed by TEV; label: 5' biotin; single strand.

T1 sequence (Q9UHX1 whole entry): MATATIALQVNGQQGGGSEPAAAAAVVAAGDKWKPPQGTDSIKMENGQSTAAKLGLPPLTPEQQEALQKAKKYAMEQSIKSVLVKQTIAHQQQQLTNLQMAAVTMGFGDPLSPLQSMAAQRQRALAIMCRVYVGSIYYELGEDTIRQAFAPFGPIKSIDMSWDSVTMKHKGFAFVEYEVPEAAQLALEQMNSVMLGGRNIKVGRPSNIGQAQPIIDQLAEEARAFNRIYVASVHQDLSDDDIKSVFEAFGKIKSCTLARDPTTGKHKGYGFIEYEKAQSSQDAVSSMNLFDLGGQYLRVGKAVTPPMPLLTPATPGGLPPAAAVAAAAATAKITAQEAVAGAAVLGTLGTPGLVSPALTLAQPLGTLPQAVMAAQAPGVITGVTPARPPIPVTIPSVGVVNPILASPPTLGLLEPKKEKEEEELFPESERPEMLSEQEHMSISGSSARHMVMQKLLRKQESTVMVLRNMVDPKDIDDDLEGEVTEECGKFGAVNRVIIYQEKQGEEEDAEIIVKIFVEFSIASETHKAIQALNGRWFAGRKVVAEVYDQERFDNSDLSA
T2 sequence (P26368 whole entry, one chain of several): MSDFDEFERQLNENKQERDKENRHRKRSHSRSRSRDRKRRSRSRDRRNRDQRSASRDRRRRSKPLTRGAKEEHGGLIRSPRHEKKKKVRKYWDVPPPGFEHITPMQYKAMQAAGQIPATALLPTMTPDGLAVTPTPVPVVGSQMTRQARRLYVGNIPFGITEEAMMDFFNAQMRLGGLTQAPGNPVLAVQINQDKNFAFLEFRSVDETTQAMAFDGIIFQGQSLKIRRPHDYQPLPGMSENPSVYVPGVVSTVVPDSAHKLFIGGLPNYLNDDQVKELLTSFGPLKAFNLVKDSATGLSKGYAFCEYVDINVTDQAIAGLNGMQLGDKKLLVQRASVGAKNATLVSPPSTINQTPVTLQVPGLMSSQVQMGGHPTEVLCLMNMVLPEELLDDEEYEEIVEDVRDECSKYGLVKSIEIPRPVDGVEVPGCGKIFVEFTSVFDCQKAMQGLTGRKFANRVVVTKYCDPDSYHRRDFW

Take UUUUUUUGUUUUGUUUUGUGUUUUUUGAUAGA (ssRNA) [UBE2F-can3'ss-32]: the binding result with PUF60 WT [1] and in the series with U2AF65 WT [2] was “binds” each time.
For the molecule CUUUUUGUUUCCUUUUUUUUUUAAUUUAAAGG (ssRNA) [UBE2F-cr3'ss-32], the binding result with PUF60 WT [3] and with U2AF65 WT [4] was “binds” in each case.
Take UUCGUGCUGACCUGUCCCUUUUUUUUCCACAGC (ssRNA) [AdML]: the binding result with PUF60 WT [5] is on record as “binds”.
